Common to all, as to details: both partners purified
Assay [1] concerns the target T1, MadC (lanthionine cyclase of Clostridium sp. maddingley), His6-tag cleaved off (Clostridium sp. maddingley).
T1 construct: MadC, class I lanthipeptide cyclase, Clostridium sp. maddingley, NCBI EKQ50560.1, synthetic gene from GenScript in pET28b(+); calculated molecular weight 49.71 kDa; also called cleaved MadC; class I cyclase MadC; not shown: His6, N-terminal, cleaved
The assay is described as follows: ITC; MadC (200–600 μM) in the syringe, 20 injections of 2 μl into the cell with the leader variant (20–60 μM); 25°C; 50 mM HEPES, 500 mM NaCl, pH 7.5; at least triplicate. (Isothermal titration calorimetry measures the heat released or taken up as one component is titrated into another.)

Assay [2] deals with T1, MadC (lanthionine cyclase of …). Described as above. The source holds these as a separate data set.
Assay [3] deals with T2, His6-MadC (hexa-histidine tagged cyclase MadC, wild type) (Clostridium sp. maddingley).
T2 construct: MadC, class I lanthipeptide cyclase, Clostridium sp. maddingley, NCBI EKQ50560.1, in pET28b(+) with N-terminal His6-tag and thrombin cleavage site; Thrombin cleavage site between the tag and MadC; Captured by the His-tag on the Ni-NTA chip in SPR; also the crystallised form (PDB 8BYK); also called wild-type MadC; not shown: His6, N-terminal, kept
Put plainly: SPR; His6-MadC variant captured on a poly-NTA (Ni2+) chip to 400–500 RU; L3 injected at 180 nM to 30 μM; 200 mM NaCl, 50 mM HEPES/NaOH pH 8; affinity from the maximum RU values. (Surface plasmon resonance follows binding to a sensor surface in real time, without labels.)

The term Kd denotes the equilibrium constant for the complex coming apart. Regarding MGKLDDFDLDVKVKADTTKVGPA [maddinglicin leader peptide construct madL1, Leader 1 (−23 – −1)], the Kd amounted to 10.5 ± 4.3 µM in assay [1] and 10.4 µM in assay [2].
As to MGKLDDFDLDVKVKADTTKVGPAITSKS [maddinglicin leader peptide construct madL2, Leader 2 (−23 − +5)], the Kd in assay [2] was determined as 9.35 µM.
For MGKLDDFDLDVKVKADTTKVGPAITSKSLCTPG (synthetic, unmodified peptide (no lanthionine rings); MadA 1-33 from Table S4) [maddinglicin leader peptide construct madL3, Leader 3 (−23 − +10)], the Kd turned out to be 16 ± 7 µM in assay [3] and 5.69 µM in assay [2].

(Values after PMC9889658, “The structure of MadC from Clostridium maddingley reveals new insights into class I lanthipeptide cyclases” (Frontiers in Microbiology, 2022).)
